The values that follow come from article PMC4705995, “The Protein Interaction of RNA Helicase B (RhlB) and Polynucleotide Phosphorylase (PNPase) Contributes to the Homeostatic Control of Cysteine in Escherichia coli*” (The Journal of Biological Chemistry, 2015).

First the molecules themselves.
B1: FlagPNPase (Flag-tagged PNP) (enzyme)
chain: MLNPIVRKFQYGQHTVTLETGMMARQATAAVMVSMDDTAVFVTVVGQKKAKPGQDFFPLTVNYQERTYAAGRIPGSFFRREGRPSEGETLIARLIDRPIRPLFPEGFVNEVQVIATVVSVNPQVNPDIVAMIGASAALSLSGIPFNGPIGAARVGYINDQYVLNPTQDELKESKLDLVVAGTEAAVLMVESEAQLLSEDQMLGAVVFGHEQQQVVIQNINELVKEAGKPRWDWQPEPVNEALNARVAALAEARLSDAYRITDKQERYAQVDVIKSETIATLLAEDETLDENELGEILHAIEKNVVRSRVLAGEPRIDGREKDMIRGLDVRTGVLPRTHGSALFTRGETQALVTATLGTARDAQVLDELMGERTDTFLFHYNFPPYSVGETGMVGSPKRREIGHGRLAKRGVLAVMPDMDKFPYTVRVVSEITESNGSSSMASVCGASLALMDAGVPIKAAVAGIAMGLVKEGDNYVVLSDILGDEDHLGDMDFKVAGSRDGISALQMDIKIEGITKEIMQVALNQAKGARLHILGVMEQAINAPRGDISEFAPRIHTIKINPDKIKDVIGKGGSVIRALTEETGTTIEIEDDGTVKIAATDGEKAKHAIRRIEEITAEIEVGRVYTGKVTRIVDFGAFVAIGGGKEGLVHISQIADKRVEKVTDYLQMGQEVPVKVLEVDRQGRIRLSIKEATEQSQPAAAPEAPAAEQGE

The target in assay [1] is T1, FlagRhlB^P238L (Flag-tagged RhlB^P238L) (Escherichia coli, UniProt P0A8J8 1-421, P238L).
T1 sequence: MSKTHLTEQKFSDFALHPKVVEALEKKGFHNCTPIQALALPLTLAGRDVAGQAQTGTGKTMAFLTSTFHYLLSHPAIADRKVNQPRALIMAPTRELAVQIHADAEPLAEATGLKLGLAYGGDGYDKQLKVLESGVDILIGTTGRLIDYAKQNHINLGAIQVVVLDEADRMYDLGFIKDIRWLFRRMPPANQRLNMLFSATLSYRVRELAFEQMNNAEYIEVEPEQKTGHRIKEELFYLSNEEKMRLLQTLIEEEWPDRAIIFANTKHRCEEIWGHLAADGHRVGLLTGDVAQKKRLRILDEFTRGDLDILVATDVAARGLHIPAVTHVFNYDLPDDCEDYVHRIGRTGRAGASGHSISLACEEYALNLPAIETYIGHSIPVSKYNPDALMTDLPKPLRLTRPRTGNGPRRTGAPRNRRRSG
Briefly: SPR. On the technique in general: Surface plasmon resonance follows binding to a sensor surface in real time, without labels.

Assay [2] concerns the target T1, FlagRhlB^P238L (Flag-tagged RhlB^P238L). Nature of the assay: SPR. This is another data set of the same source.
Assay [3] has as its target B1. Nature of the assay: SPR.
In assay [4] the target is B1. Nature of the assay: SPR.
Assay [5] has as its target T2, FlagPNPase (Flag-tagged PNP) (Escherichia coli, UniProt P05055 1-711).
T2 construct: polynucleotide phosphorylase (PNPase) of Escherichia coli; also called pFlagPNP; polynucleotide phosphorylase
T2 sequence (looked up): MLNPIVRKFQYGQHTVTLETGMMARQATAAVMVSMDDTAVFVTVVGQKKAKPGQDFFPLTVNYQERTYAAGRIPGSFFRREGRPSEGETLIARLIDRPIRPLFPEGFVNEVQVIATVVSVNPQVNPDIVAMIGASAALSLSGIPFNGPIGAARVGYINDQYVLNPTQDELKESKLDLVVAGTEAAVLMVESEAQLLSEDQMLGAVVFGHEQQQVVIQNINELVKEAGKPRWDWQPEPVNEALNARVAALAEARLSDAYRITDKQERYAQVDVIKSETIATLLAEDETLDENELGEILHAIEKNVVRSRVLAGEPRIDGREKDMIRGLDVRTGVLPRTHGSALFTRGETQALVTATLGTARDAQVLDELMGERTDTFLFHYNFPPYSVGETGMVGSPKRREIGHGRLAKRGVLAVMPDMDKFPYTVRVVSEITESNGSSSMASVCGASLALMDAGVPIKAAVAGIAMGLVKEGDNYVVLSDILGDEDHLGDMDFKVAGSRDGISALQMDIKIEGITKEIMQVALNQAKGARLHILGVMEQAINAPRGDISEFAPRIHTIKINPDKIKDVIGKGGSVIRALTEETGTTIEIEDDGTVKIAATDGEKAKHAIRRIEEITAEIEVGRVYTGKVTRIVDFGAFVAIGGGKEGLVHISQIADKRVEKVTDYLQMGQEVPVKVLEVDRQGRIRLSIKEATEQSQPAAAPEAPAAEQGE
Nature of the assay: SPR; Biacore X; purified FlagPNPase immobilised on a CM5 chip by amine coupling; 0.75 to 24 uM FlagRhlB injected at 10 ul/min, 25 °C. The note with it: both partners purified.

Broadly, the koff is the first-order rate constant of dissociation. One may read the Kd as the free concentration of one partner at which half of the binding sites on the other are occupied at equilibrium, for simple one-to-one binding. Higher therefore signals a looser complex. As for B1, in assay [1], the koff amounted to 0.00207 s⁻¹. Also, the Kd in assay [2] was determined as 6.64 µM.

B2: FlagRhlB^wt (Flag-tagged wild-type RhlB) (enzyme, Escherichia coli, UniProt P0A8J8 1-421, looked up)
chain: MSKTHLTEQKFSDFALHPKVVEALEKKGFHNCTPIQALALPLTLAGRDVAGQAQTGTGKTMAFLTSTFHYLLSHPAIADRKVNQPRALIMAPTRELAVQIHADAEPLAEATGLKLGLAYGGDGYDKQLKVLESGVDILIGTTGRLIDYAKQNHINLGAIQVVVLDEADRMYDLGFIKDIRWLFRRMPPANQRLNMLFSATLSYRVRELAFEQMNNAEYIEVEPEQKTGHRIKEELFYPSNEEKMRLLQTLIEEEWPDRAIIFANTKHRCEEIWGHLAADGHRVGLLTGDVAQKKRLRILDEFTRGDLDILVATDVAARGLHIPAVTHVFNYDLPDDCEDYVHRIGRTGRAGASGHSISLACEEYALNLPAIETYIGHSIPVSKYNPDALMTDLPKPLRLTRPRTGNGPRRTGAPRNRRRSG
notes: RNA helicase B (RhlB) of Escherichia coli; also called pFlagRhlB^wt
The kon is the rate constant with which the complex forms. Read a low kon as slow association. Molecule B2 showed a koff in assay [3] of 0.0021 s⁻¹. For the same molecule, the Kd in assay [4] was found to be 1.67 µM. The kon in assay [5] was 1260 M⁻¹ s⁻¹.

B3: FlagRhlB^P238L (Flag-tagged RhlB^P238L) (enzyme, Escherichia coli, UniProt P0A8J8 1-421, looked up)
chain: MSKTHLTEQKFSDFALHPKVVEALEKKGFHNCTPIQALALPLTLAGRDVAGQAQTGTGKTMAFLTSTFHYLLSHPAIADRKVNQPRALIMAPTRELAVQIHADAEPLAEATGLKLGLAYGGDGYDKQLKVLESGVDILIGTTGRLIDYAKQNHINLGAIQVVVLDEADRMYDLGFIKDIRWLFRRMPPANQRLNMLFSATLSYRVRELAFEQMNNAEYIEVEPEQKTGHRIKEELFYLSNEEKMRLLQTLIEEEWPDRAIIFANTKHRCEEIWGHLAADGHRVGLLTGDVAQKKRLRILDEFTRGDLDILVATDVAARGLHIPAVTHVFNYDLPDDCEDYVHRIGRTGRAGASGHSISLACEEYALNLPAIETYIGHSIPVSKYNPDALMTDLPKPLRLTRPRTGNGPRRTGAPRNRRRSG
notes: RNA helicase B (RhlB) of Escherichia coli with P238L, introduced into pFlagRhlB by site-directed mutagenesis; also called pFlagRhlB^P238L
B3 returned a kon in assay [5] of 311 M⁻¹ s⁻¹.
